The results in this text go back to publication PMC6420783.

For one data set, the target named is Ape1WT (Homo sapiens, UniProt P27695 1-318). Description: SPR.
A further data set concerns the target NPM1 (UniProt P06748 1-294). Briefly: SPR. (In general: In SPR one partner is held on a chip, and binding of the other changes the refractive index at the surface.)

A word on the Kd: it is a measure of binding affinity in units of concentration. A low value points to a tighter complex.

NPM1, sequence (P06748 whole entry): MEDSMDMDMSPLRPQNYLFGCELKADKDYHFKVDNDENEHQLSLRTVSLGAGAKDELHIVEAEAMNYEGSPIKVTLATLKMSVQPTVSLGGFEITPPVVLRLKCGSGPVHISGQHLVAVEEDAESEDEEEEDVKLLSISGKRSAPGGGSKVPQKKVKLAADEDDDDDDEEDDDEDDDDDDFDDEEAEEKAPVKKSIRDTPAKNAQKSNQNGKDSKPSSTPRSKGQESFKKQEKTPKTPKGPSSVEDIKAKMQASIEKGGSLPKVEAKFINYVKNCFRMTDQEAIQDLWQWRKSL
Ape1WT, sequence (P27695 whole entry): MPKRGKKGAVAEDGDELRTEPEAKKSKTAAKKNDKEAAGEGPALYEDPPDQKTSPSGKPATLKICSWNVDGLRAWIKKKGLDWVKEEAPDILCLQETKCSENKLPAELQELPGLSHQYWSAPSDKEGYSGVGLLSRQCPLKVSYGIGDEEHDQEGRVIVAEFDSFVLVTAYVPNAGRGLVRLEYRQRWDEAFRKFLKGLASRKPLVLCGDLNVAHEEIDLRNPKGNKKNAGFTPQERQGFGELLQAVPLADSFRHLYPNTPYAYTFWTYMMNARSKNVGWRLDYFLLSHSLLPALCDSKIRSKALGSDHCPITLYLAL

As for TAGGGTTAGGGTTAGGGTTAGGG (structured_DNA) [Biot-Nat], the Kd is 31.6 nM in the data set with Ape1WT and 147 nM with NPM1.
Consider TTTTTTTTTTTTTTTTTTTTTTT (ssDNA) [Biot-Poly dT], for which the Kd in the data set with Ape1WT was 170 nM; with NPM1, 255 nM.
